Measured values from paper PMC7393355, “A FRET-based screening method to detect potential inhibitors of the binding of CNNM3 to PRL2” (Scientific Reports, 2020).
Changes are numbered by the printed parent chain. Names may count otherwise. Each block holds one molecule with its values, some of them ahead of it.

Test system: binding of CNNM3-YPet and CyPet-PRL2 (CNNM3-PRL2 complex)
Assay: FRET-based inhibition test of the binding of CNNM3-YPet and CyPet-PRL2
Parameters: species or system human
Settings: CNNM3-YPet 200 nM, CyPet-PRL2 200 nM, n = 6; for FRET intensity abolished / inhibition of complex formation: pre-incubated 20 min R.T. with binding partner, TBS pH 8.0, mean
Protocol: FRET measurements were conducted in TBS (50 mM Tris–HCl (pH 8.0) and 150 mM NaCl). Proteins were mixed in 96-well plates and incubated at R.T. for 1 h. Fluorescence intensities were measured using an excitation wavelength of 435 nm and an emission wavelength of 530 nm with a Cytation 3 (BioTek).
The emission spectra were measured with each component at 200 nM using the Cytation 3 (BioTek) with 435 nm excitation (Supplementary Fig. 2), and the original data are shown in Supplementary Table 1. The FRET intensity was calculated by Eq. (1).1 IFRET=IA-raw-Dleakage-Adirect where IA-raw is the intensity measured at 530 nm with 435 nm excitation, Dleakage is the leakage of the donor emission into the acceptor wavelength (530 nm) upon donor excitation, and Adirect is the direct excitation of the acceptor with the donor wavelength (435 nm).
The inhibition of complex formation was assayed by pre-incubating the binding partner (200 nM) with inhibitory factors (1, 10 μM) for 20 min at R.T., followed by addition of the other protein (200 nM) (Figs. 3B, 4C). The effects of divalent cations (10 mM) and nucleotides (3 mM) were also assayed similarly (Fig. 5).
The peptides for the peptide inhibition test were synthesized by Shanghai Dechi Biosciences (Fig. 6C,D). The peptide sequences were as follows: peptide 1, IVQKVNNEGEGDPFYEVLG; peptide 2, […] (an S–S bond was formed between the cysteine residues, as verified by HPLC and mass spectrometry). The peptides were dissolved in TBS buffer at 10 mM before use.
FRET data were evaluated by subtracting backgrounds (fluorescence intensities of CyPet-PRL2, CNNM3-YPet and a blank well). All data analysis was performed using GraphPad Prism 6 (GraphPad Software) with the methods described in each legend.

- FRET intensity abolished / inhibition of complex formation (inhibitory protein 1 μM): 85.5%
- FRET intensity abolished / inhibition of complex formation (inhibitory protein 10 μM): 89.7%
B1: PRL2: purified non-fluorescence protein-tagged human PRL2 (residues 1–167) (protein)
chain: MNRPAPVEISYENMRFLITHNPTNATLNKFTEELKKYGVTTLVRVCDATYDKAPVEKEGIHVLDWPFDDGAPPPNQIVDDWLNLLKTKFREEPGCCVAVHCVAGLGRAPVLVALALIECGMKYEDAVQFIRQKRRGAFNSKQLLYLEKYRPKMRLRFRDTNGHCCVQ
modifications: left off: His tag (from the vector pET28a and the Ni-NTA purification), end not stated, state not stated

- FRET intensity abolished / inhibition of complex formation (inhibitory protein 1 μM): 61.6%
- FRET intensity abolished / inhibition of complex formation (inhibitory protein 10 μM): 90.0%
B2: PRL1: purified non-fluorescence protein-tagged human PRL1 (protein)
chain: MARMNRPAPVEVTYKNMRFLITHNPTNATLNKFIEELKKYGVTTIVRVCEATYDTTLVEKEGIHVLDWPFDDGAPPSNQIVDDWLSLVKIKFREEPGCCIAVHCVAGLGRAPVLVALALIEGGMKYEDAVQFIRQKRRGAFNSKQLLYLEKYRPKMRLRFKDSNGHRNNCCIQ

- FRET intensity abolished / inhibition of complex formation (inhibitory protein 1 μM): 77.7%
- FRET intensity abolished / inhibition of complex formation (inhibitory protein 10 μM): 89.2%
B3: non-YPet-tagged CNNM3: purified non-fluorescence-tagged CBS domain of human CNNM3 (protein)
chain: YSDLSKGVLRCRTVEDVLTPLEDCFMLDASTVLDFGVLASIMQSGHTRIPVYEEERSNIVDMLYLKDLAFVDPEDCTPLSTITRFYNHPLHFVFNDTKLDAVLEEFKRGKSHLAIVQKVNNEGEGDPFYEVLGLVTLEDVIEEIIRSEILDE
modifications: left off: His tag (from the vector pET28a and the Ni-NTA purification), end not stated, state not stated

- FRET intensity abolished / inhibition of complex formation (inhibitory protein 10 μM): 12.9%
- effect of added protein on FRET intensity (in words) (inhibitory protein 1 and 10 μM): little effect on the FRET intensity
B4: CNNM3 CBS domain D426A mutant: CNNM3 CBS domain with D426A mutation at the PRL2-binding site (protein)
chain: B3 chain with D126A
modifications: left off: His tag (from the vector pET28a and the Ni-NTA purification), end not stated, state not stated
